# Test results from patent US8735129B2, “Ginsenoside glycosidase derived from the genus Terrabacter, and use thereof” (Korea Research Institute of Bioscience and Biotechnology, priority 2009, dated 2014).
# B1: Bgl-gyp17: recombinant ginsenoside glycosidase from Terrabacter Gsoil 3082, SEQ ID NO. 1, 589 residues (protein, listed as Terrebacter sp.)
# chain: MDPYEDPRLPVEVRVEDLLGRLSLEEKVGLMFQTVIEAGSDGTVLEHPGSISKSPTSTVVLDKHLTHFNVHALDDPRMAARWSNALQALAERTPHGIPVTVSTDPRHAFIENVGVSFSAGAFSQWPEPLGLAALRDADAVRRFADIARQEYVAVGIRAALHPTLDLATEPRWARQAGTFGQDPDLVTELGVAYLKGFQGDSLGSGSVACTSKHFPGGGPQKDGEDAHFPYGREQVYPGGRFADHLKPFPPIIEAGTAGIMPYYGMPVDLVVDGVEIEPIGFGYNKQVVTGLLREKLGYDGVVVTDWELVNDNHVGDQVLPARAWGVEHLDPHGRMELILEAGADQFGGEECVEILLDLVAQGRVTEARVDESARRILAVKFRLGLFENPYVDEDEAAATVGRDDFREEGYAAQARSVTVLHHEGGRLPLEHGLRIYAEQVSPEAVARHGKLVDRPEDADVAVVRLTAPFDPRSDLFLESWFHQGSLDFPPGLVARLERIAAVCPLVVDVVLDRPAVLTPLLRFASAVVGSFGSCDDALLDALTGTIAPVGRLPFDLPRSMDQVRAHGEDVPGYDDPLFPFGHGLRLDTE
# modifications: PEPTIDE (1)..(589) amino acid sequence of Bgl-gyp17
# notes: 1, 589 residues
# How the values were obtained:
# recombinant Bgl-gyp17 [1] = assay: Enzymatic hydrolysis of PPD-type ginsenosides (TLC, HPLC, NMR); type: biochemical, Terrabacter ginsenosidimutans Gsoil 3082; settings: 0.2 U enzyme, 50 mM sodium phosphate pH 7.0, 37° C.; hydrolysis of glucoses at C-3
# Method: In order to analyze the specificity and selectivity of the recombinant enzyme for the hydrolysis of glucose at the C-3 and C-20 positions of PPD-type ginsenoside, ginsenoside Rb1, Rb2, Rc, Rd, and Rg3 were used as substrates. Each reaction mixture containing 0.2 U enzyme, 50 mM sodium phosphate buffer 0.1% (w/v) (pH 7.0), and the substrate was incubated at 37° C. Each sample was withdrawn at regular intervals, and an equal volume of water-saturated butanol was added to stop the reaction. The n-butanol fraction was evaporated to dryness, and any residual material was dissolved in CH3OH and then examined by TLC HPLC or NMR analysis.
# [2] = test system: refolded recombinant ginsenoside glycosidase; assay: Reaction of refolded recombinant ginsenoside glycosidase with Rb1, TLC analysis; type: biochemical, Terrabacter ginsenosidimutans Gsoil 3082; settings: 1 mg/ml Rb1 solution in 50 mM sodium phosphate
# Method: E. coli C41(DE3) containing an overexpressing plasmid was cultured in LB-ampicillin media at 37° C. when the OD value at 600 nm reached 0.6, and treated with 0.5 mM isopropyl-β-D-thiogalactopyranoside for 12 hours to induce protein expression. The bacterial cells were obtained by centrifugation at 4° C. and 5,000×g for 20 minutes. The cell pellet was resuspended in a solution (suspension) consisting of 50 mM sodium phosphate, 5 mM EDTA, and 1% Triton X-100 (pH 7.0) and subjected to ultrasonification. Since the recombinant ginsenoside glycosidase was expressed as an insoluble inclusion body, the sonicated lysate was centrifuged at 4° C. and 20,000×g for 30 minutes to obtain a pellet. The pellet was washed twice with a suspension solution in the absence of Triton X-100. The inclusion body was stirred in a solution containing 50 mM sodium phosphate, 5 mM EDTA, and 8 M urea (pH 8.0) at room temperature overnight for solubilization. After centrifugation (20,000×g, 30 minutes, 4° C.), the solubilized protein was diluted with 40 volumes of a refolding buffer containing 50 mM sodium phosphate, 5% glycerol, 0.05% polyethylene glycol and 0.5 mM sodium chloride at pH 7.0, and refolding of the protein was performed at 4° C. for 24 hours. […] Protein similarity was determined by 10% SDS-PAGE and Coomassie Blue staining. […]
# recombinant Bgl-gyp17 [3] = assay: Enzymatic hydrolysis of PPD-type ginsenosides (TLC, HPLC, NMR); type: biochemical, Terrabacter ginsenosidimutans Gsoil 3082; settings: 1 mg/ml ginsenoside Rb1, enzyme concentrations lower than 0.01 mg/ml
# [4] = in vivo, po; cited from earlier work
# [5] = Specific activity of the enzyme with pNPGlc; type: biochemical
# Method: Specific activity was measured using 90 μl of 50 mM sodium phosphate buffer containing 2.0 mM pNPGlc (p-nitrophenyl-β-D-glucopyranoside; Sigma) at pH 7.0, and 10 μl of the diluted purified enzyme was treated at 37° C. for 20 minutes before initiation of the reaction, followed by incubation. 0.1 ml of 1 M Na2CO3 was treated for 5 minutes to terminate the reaction, and the secretion of p-nitrophenol was immediately measured at 405 nm. One unit of activity was defined as the amount of enzyme that released 1 μmol of p-nitrophenol per minute. Specific activity is expressed in units per milligram protein. Protein concentration was measured using a Bio-Rad protein staining reagent according to the protocol. All analyses were performed at least three times.
# [6] = Kinetic studies (Km, Vmax) with pNPGlc; type: biochemical; settings: hydrolysis of pNPGlc, 37° C., Cleland program
# Method: Kinetic studies were performed with freshly purified enzyme using pNPGlc at the concentrations from 0.1 mM to 0.6 mM. Its absorbance at 405 nm was monitored at 37° C. for 20 minutes. The resulting data were used to determine Km and Vmax using the Enzyme Kinetics Program reported by Cleland.
# In order to examine the substrate specificity of Bgl-gyp17, it was incubated in 50 mM sodium phosphate buffer containing 2.0 mM βα and β-type p-NP (p-nitrophenyl) and oNP (O-nitrophenyl)-glycosidase at pH 7.0 and 37° C. […] The Km and Vmax for the hydrolysis of pNPGlc by ginsenoside glycosidase were determined using 0-2 mM substrate and the enzyme kinetics program reported by Cleland. The values measured by the program were 4.24 mM and 0.10 mmol*min^−1*mg of protein^−1 for pNpGlc.
# [7] = type: biochemical; settings: after incubation at 45° C. for 30 minutes
# Method: The thermo-dependence of the activity was assayed in 50 mM potassium phosphate buffer at various temperatures ranging from 4 to 90° C. Thermostability was tested by incubating aliquots of the enzyme in 50 mM potassium phosphate buffer for 30 minutes at different temperatures. After cooling the sample on ice for 10 minutes, residual activity was determined by a standard analysis;
# The pH effect on the enzymatic activity was measured using 2.0 mM pNPGlc in the following buffer (50 mM):
# Buffer: pH range of 2 to 10: KCl—HCl (pH 2), glycine-HCl (pH 3), sodium acetic acid (pH 4 and 5), sodium phosphate (pH 6 and 7), Tris-HCl (pH 8 and 9) and glycine-sodium hydroxide (pH 10).
# The enzyme was incubated in each of the above mentioned buffers at 4° C. for 24 hours, and then pHPGlc was analyzed in 50 mM potassium buffer to measure the enzymatic stability according to pH change. The activity was measured by the above mentioned method.
# The results were represented as an activity probability obtained at the optimum pH.
# The temperature-dependent activity in the 50 mM potassium phosphate buffer was analyzed within the temperature range of 4-90° C. using 2.0 mM pNPGlc at the optimum pH for 5 minutes. […] The sample was cooled in ice for 10 minutes, and the residual activity was measured by pNPGlc analysis.
Molecule,conversion of the ginsenoside by the enzyme (product) (recombinant Bgl-gyp17 [1]),conversion of the ginsenoside (TLC) [2],hydrolysis of the ginsenoside (recombinant Bgl-gyp17 [3]),in vivo absorption [4],"specific activity at 100% ([5]; control without metal ions or reagents, Table 5)",Specific activity (U/mg) ([5]; purification step: Crude extract),Specific activity (U/mg) ([5]; purification step: DEAE-cellulose purification),Specific activity (U/mg) ([5]; purification step: Ni purification),Km [6] [mM],Vmax [6],loss of activity [7]
CC(C)=CCC[C@](C)(O[C@@H]1O[C@H](CO[C@@H]2O[C@H](CO)[C@@H](O)[C@H](O)[C@H]2O)[C@@H](O)[C@H](O)[C@H]1O)[C@H]1CC[C@]2(C)[C@@H]1[C@H](O)C[C@@H]1[C@@]3(C)CC[C@H](O[C@@H]4O[C@H](CO)[C@@H](O)[C@H](O)[C@H]4O[C@@H]4O[C@H](CO)[C@@H](O)[C@H](O)[C@H]4O)C(C)(C)[C@@H]3CC[C@]12C [ginsenoside Rb1],C—K,converted ginsenoside Rb1 into gyp XVII,completely hydrolyzed to produce gyp XVII,very low in vivo absorption,–,–,–,–,–,–,–
B1,–,–,–,–,^aThe specific activity at 100% was 44.3 U/mg.,23.4,65.8,65.0,4.24,0.10 mmol*min^−1*mg of protein^−1,approximately 32%
